Source: PMC8317047, “Characterisation of a hyperthermophilic transketolase from Thermotoga maritima DSM3109 as a biocatalyst for 7-keto-octuronic acid synthesis” (Organic & Biomolecular Chemistry, 2021)

Key:
purified protein [1] = substrate: O=CCO; test: purified protein; format: biochemical, Thermotoga maritima; conditions: apparent, LiHPA constant at 50 mM, ThDP 2.4 mM, MgCl2 9 mM, TEA 2 mM pH 7, 65 °C
purified protein [2] = substrate: O=C(O)C(=O)CO; test: purified protein; conditions: apparent, GA constant at 50 mM, ThDP 2.4 mM, MgCl2 9 mM, TEA 2 mM pH 7, 65 °C

B1: TKtmar (Thermotoga maritima MSB8) (protein)
chain: MERFPYEKLPESELKELKELGRLCRGDILKMTYIANSGHPGGSMSSIDLYLTVFKYAKLRPVDDPARDRIVISHGHTSPGVYAAMARLGFVDLDEVLAGFRHPASVFEGHVTRGVGIIDWTTGNLGQGLSAGLGFALASRFTGKDYHVFVLMSDAEQAKGQVAEARRVAKKYGVTNLTVIIDYNDAQISGRARDVMPVNIKENYLADGWRVIEIDGHDYEQIYLALKEAVEDELNPVAIIAKTVMGKGVSFMENEVKYHGKPLNREELEKALAELGIENDVDVYIEKRKQLPVEKHKKVYKTYPIKIDTGEPITYTSPTDNRSAFGKAILDLVKKNVNNPETTPIVAVDCDLKGSVKLDLLDKEFPERLLEVGVQEHNAAAMAGALSAEGVITFFADFGVFGISETYNQHRLNAINGTNLKVVVTHCGLNVGEDGKTHHGLDYVSGPMNWYGFKVIVPGDPNQTDRVVRYAAKEYGNFVIAMGRSKLPIILDENGKPFFGEGYTFEYGKIDVVRKGDDAVIITYGSTLCEAVNAADELKKEGVNVAVLNVSCPVDLDIETLKMVDGKPVLVVEDHNVFTGLGSFLGTTLLENGIIPKKYVRVGVPEFAVSGSYTMLYKLYGLDKDGIISRLREML
notes: full length with C-terminal His6 tag, pET-29:SacB-SapI, E. coli BL21(DE3), Ni-NTA purified
Purified protein [1]
  Km: 3.6 ± 0.4 mM
  Vmax: 190 µM/min
  kcat: 0.45 ± 0.03 s⁻¹
  kcat/Km: 126 ± 6 M⁻¹ s⁻¹
Purified protein [2]
  Km: 53.8 ± 4.1 mM
  Vmax: 330 µM/min
  kcat: 0.77 s⁻¹
  kcat/Km: 14.4 M⁻¹ s⁻¹
